In US11819489B2 (priority 2017, dated 2023):
“Also recorded” adds a separate entry of the source.

What was measured:
[1] = Stability of As-LHP complexes in Milli-Q water by XAS; type: physicochemical; conditions: 37° C.; for stability in Milli-Q water: XANES
Procedure: The stability of As-LHP complexes was studied by XAS. Samples were prepared by dissolving HyAs(LHP), MeAs(LHP) or PhAs(LHP) (1.5 mM) in Milli-Q water which was maintained at 37° C. Immediately prior to analysis the arsenic-peptide solution (600 μL) was mixed with ethylene glycol (300 μL) to prevent crystallisation during rapid freezing. The resultant solution (1 mM final As concentration) was transferred by syringe to the sample holder which was sealed with Kapton tape. The sample was then rapidly submerged in liquid nitrogen and transferred to the liquid helium cryostat where it was analysed at 10° K.
Arsenic K-edge XAS data were collected at the Australian National Beamline Facility (ANBF, beamline 20B) KEK, Tsukuba, Japan with a beam energy of 2.5 GeV, and beam current of 300-400 mA. A Si[111] channel-cut monochromator was detuned by 50% to reject harmonics. All spectra were recorded in fluorescence mode at ˜10° K (maintained with a closed-cycle He Cryolndustries REF-1577-D22 cryostat) using a 36-element Ge-array detector (Eurisys/Canberra Industries) and a 1-mm vertical slit width. XAS spectra were obtained at the zero time point and then at a later time point, 4 h or 14 h. The spectra from the two time points were processed and analysed using EXAFS PAK.

[2] = Stability of As-LHP complexes in cell medium (IMDM) by XAS; type: physicochemical; conditions: 37° C., 0 h vs 24 h
Procedure: The stability of the two most promising As-LHP complexes was also studied in cell medium (IMDM). Samples were prepared by dissolving MeAs(LHP) or PhAs(LHP) (1.5 mM) in IMDM which was maintained at 37° C. The same protocol was followed as that for the Milli-Q water stability studies. XAS spectra were obtained at the zero time point and then at 24 h. As with the Milli-Q water samples, the spectra from the two time points were processed, fitted and quantified using EXAFSPAK.

| Structure (SMILES) | IC50 as percentage of that of ATO (K562 cells) | stability in Milli-Q water ([1]; 0 h vs 4 h) | IC50 as percentage of that of HyAs(LHP) (K562 cells) | agreement between As K-edge XANES spectra at the two time points ([1]; 0 h vs 14 h) | stability in Milli-Q water ([1]; 0 h vs 14 h) | agreement between As K-edge XANES spectra at the two time points [2] | stability in IMDM ([2]; XANES) |
| --- | --- | --- | --- | --- | --- | --- | --- |
| CC(=O)N[C@H]1CS[As](O)SC[C@@H](C(=O)O)NC(=O)[C@H](CCCNC(=N)N)NC(=O)[C@H](CCCNC(=N)N)NC(=O)[C@H](CC(C)C)NC(=O)[C@H](CCCNC(=N)N)NC(=O)[C@H](Cc2c[nH]cn2)NC(=O)[C@H](Cc2ccc(O)cc2)NC(=O)[C@H](C)NC1=O (some centres unmarked) [HyAs(LHP)] | 60% | not stable in Milli-Q water for 4 h; also recorded: lack of stability | – | – | – | – | – |
| CC(=O)N[C@H]1CS[As](C)SC[C@@H](C(=O)O)NC(=O)[C@H](CCCNC(=N)N)NC(=O)[C@H](CCCNC(=N)N)NC(=O)[C@H](CC(C)C)NC(=O)[C@H](CCCNC(=N)N)NC(=O)[C@H](Cc2c[nH]cn2)NC(=O)[C@H](Cc2ccc(O)cc2)NC(=O)[C@H](C)NC1=O (some centres unmarked) [MeAs(LHP)] | 37% | – | 60% | 93% | good stability | 82% | reasonable stability |
